Consider four molecules from paper PMC12714728 (npj Viruses, 2025).

The chains are these.
B1: cyclic peptide CP11 (peptide)
peptide: CYRDPLGVAGGMC
modifications: disulfide 1-13
notes: source: synthetic peptide (manual solid phase Fmoc chemistry, iodine oxidation, RP-HPLC)
B2: cyclic peptide CP8 (peptide)
peptide: CLYRDPLGVAGGMGC
modifications: not fully specified (bridges); cysteine pairing not given here
notes: as for B1
B3: cyclic peptide CP14 (peptide)
peptide: LYEDPLGVAGGMG
modifications: head-to-tail lactam cyclized (no template)
notes: source: synthetic peptide (manual solid phase Fmoc chemistry, RP-HPLC)

Positions of bridges follow the written chain, without caps; N, C: chain ends. No end group written: not given here.

The test concerns the target H1/Bri HA, A/Brisbane/59/07 (H1N1) hemagglutinin, C-terminally biotinylated, for the CCI assay (influenza A virus A/Brisbane/59/07 …, C-terminal biotin). Kind of test: cell-based or functional assay.
Take B1: the “conformational change inhibition assay (CCI) IC50” value worked out at 8.52 µM. On to B2, for which the “conformational change inhibition assay (CCI) IC50” value is 0.54 µM. Turning to B3, the “conformational change inhibition assay (CCI) IC50” value stood at 1.24 µM.

For CYRDPLGVAGEMC (not fully specified; cysteine pairing not given here) [cyclic peptide CP13], the “conformational change inhibition assay (CCI) IC50” value came out at 39.4 µM.
